According to article PMC5138847 (Scientific Reports, 2016):
Where a chain is given by its changes, count along the chain named. Numbers in names are those of the source.

T1: DrUox (zebrafish urate oxidase, uricase) (Danio rerio, UniProt Q6DG85)
T1 construct: gene uox; full length, 298 aa; N-terminal 6xHis tag (pET28b) for wt and F216S kinetics, untagged for crystals; E. coli BL21-CodonPlus(DE3); homotetramer
T1 sequence (Q6DG85 1-298): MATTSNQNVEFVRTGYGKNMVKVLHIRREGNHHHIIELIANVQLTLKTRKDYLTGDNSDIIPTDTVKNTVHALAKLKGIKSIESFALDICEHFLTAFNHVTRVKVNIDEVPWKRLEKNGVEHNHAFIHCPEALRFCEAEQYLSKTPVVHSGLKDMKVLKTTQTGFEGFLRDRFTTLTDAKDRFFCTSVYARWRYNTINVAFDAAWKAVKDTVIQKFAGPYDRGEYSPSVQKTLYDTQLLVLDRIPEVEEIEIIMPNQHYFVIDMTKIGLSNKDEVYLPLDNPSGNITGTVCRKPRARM

T2: DrUox (zebrafish urate oxidase, uricase) (Danio rerio, UniProt Q6DG85, F216S)
T2 construct: gene uox; full length, 298 aa; N-terminal 6xHis tag (pET28b) for wt and F216S kinetics, untagged for crystals; E. coli BL21-CodonPlus(DE3); homotetramer
T2 sequence (Q6DG85 1-298 F216S): T1 sequence (Q6DG85 1-298) with F216S

B1: DrUox (zebrafish urate oxidase, uricase) (Danio rerio) (protein)
chain: T1 sequence (Q6DG85 1-298)
B2: zebrafish urate oxidase F216S mutant, His-tagged (enzyme, zebrafish (Danio rerio), UniProt Q6DG85 1-298, looked up)
chain: T1 sequence (Q6DG85 1-298) with F216S
notes: also called F216S DrUox; mutant DrUox; source: E. coli BL21-CodonPlus(DE3), purified (Talon cobalt resin)
B3: zebrafish (Danio rerio) urate oxidase, untagged wild type (enzyme, UniProt Q6DG85 1-298, looked up)
chain: T1 sequence (Q6DG85 1-298)
notes: cDNA IMAGE:100059545; In the crystal, electron density runs from Gly8 to Pro294; Cys129 forms an inter-subunit disulfide (chains A-C and B-D); also called DrUox; Uox; source: E. coli BL21-CodonPlus(DE3), purified (xanthine-agarose column, eluted with urate)
B4: zebrafish urate oxidase, His-tagged wild type (enzyme, zebrafish (Danio rerio), UniProt Q6DG85 1-298, looked up)
chain: T1 sequence (Q6DG85 1-298)
notes: also called wt DrUox; His-tagged wt; source: E. coli BL21-CodonPlus(DE3), purified (Talon cobalt resin)

Legend:
[1] = molecular target: T1, DrUox (zebrafish urate oxidase, uricase); assay: UV absorbance, global fit to competitive inhibition; type: biochemical; details: read-out: Xanthine / Ki
[2] = molecular target: T2, DrUox (zebrafish urate oxidase, uricase); assay: UV absorbance at […] nm, global fit to competitive inhibition; type: biochemical; details: read-out: Xanthine / Ki
[3] = substrate: O=c1[nH]c(=O)c2[nH]c(=O)[nH]c2[nH]1; assay: purified protein; details: 100 mM potassium phosphate pH 7.6, 25 °C, equimolar DrUrah
[4] = molecular target: the molecule itself; assay: SEC; HPLC-SEC on a Superdex 200 increase 3.2/300 column, native conditions, about 13 ug of each sample, elution monitored at 280 nm, calibrated with standards
[5] = molecular target: the molecule itself; assay: crystal structure; untagged DrUox 10 mg/ml (10 mM Tris-HCl pH 7.6, 1 mM EDTA), crystallised in 0.1 M Tris-HCl pH 8.5, 8% PEG 8000; space group P21, two tetramers in the asymmetric unit; 2.8 A

Molecule | Km [3] | kcat [3] | kcat/Km [3] | stoichiometry N [4] | also measured
O=c1[nH]c(=O)c2[nH]cnc2[nH]1 [xanthine] | – | – | – | – | Ki [1]: 4.3 ± 0.27 µM; Ki [2]: 59.2 ± 8.2 µM
B1 | 11 ± 1 µM | 3.95 s⁻¹ | 360000 M⁻¹ s⁻¹ | – | –
B2 | 284 ± 31 µM | 3.99 s⁻¹ | 14000 M⁻¹ s⁻¹ | 4 | –
B3 | – | – | – | – | stoichiometry N [5]: 4
B4 | – | – | – | 4 | –
